From article PMC3307134
Read-outs that look alike come from different tables or passages of the source.

How the values were obtained:
[1] = target: recombinant dimeric (β15-66)2 fragment; test: ELISA
[2] = target: fibrin (β15-66)2 15-66 (Homo sapiens) (UniProt P02675); test: SPR; settings: cited from earlier work
[3] = target: VE-cad(1-5) fragment (human); test: SPR
[4] = target: VE-cad(3)His fragment (human); test: SPR
[5] = target: VE-cad(3)His fragment (human); test: SPR; remark: listed apart in the source
[6] = target: VE-cad(1-5) fragment (human); test: SPR; remark: listed apart in the source
[7] = target: VE-cad(3)His fragment (human); test: SPR; remark: listed apart in the source

Sequence of fibrin (β15-66)2 15-66 (Homo sapiens) (P02675 15-66): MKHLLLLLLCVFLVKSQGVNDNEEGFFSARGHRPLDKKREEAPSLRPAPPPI
Sequence of VE-cadherin VE-cad(1-4)His EC1-4 (P33151 48-477): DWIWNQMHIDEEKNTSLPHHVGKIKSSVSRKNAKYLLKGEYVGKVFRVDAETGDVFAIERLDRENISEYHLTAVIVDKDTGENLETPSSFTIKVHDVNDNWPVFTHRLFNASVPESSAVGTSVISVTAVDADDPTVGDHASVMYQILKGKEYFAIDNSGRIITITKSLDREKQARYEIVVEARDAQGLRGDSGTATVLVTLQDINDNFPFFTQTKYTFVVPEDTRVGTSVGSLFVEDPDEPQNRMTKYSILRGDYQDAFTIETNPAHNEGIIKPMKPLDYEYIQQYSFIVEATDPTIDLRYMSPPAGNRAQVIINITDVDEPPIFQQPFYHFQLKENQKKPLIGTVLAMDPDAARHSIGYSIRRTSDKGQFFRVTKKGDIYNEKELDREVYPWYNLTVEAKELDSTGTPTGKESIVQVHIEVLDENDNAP

## VE-cad(2-3) fragment (domain or fragment)
[1]
  Kd: 27 nM

## VE-cad(2-4) fragment (domain or fragment)
[1]
  Kd: 32 nM

## VE-cadherin VE-cad(1-4)His EC1-4 (from UniProt P33151)
[2]
  Kd: 80 nM

## recombinant dimeric (β15-66)2 fragment (domain or fragment)
[3]
  Kd: 82 nM
[4]
  Kd: 90 nM
[5]
  Kd: 89 nM
[6]
  Kd: 76.7 nM
  kon: 678000 M⁻¹ s⁻¹
[7]
  Kd: 91 nM
  koff: 0.0172 s⁻¹
  kon: 189000 M⁻¹ s⁻¹
